Test [1] deals with human αVβ3 integrin, purified (human) (UniProt P06756). In words: saturation ELISA on αvβ3-coated plate, n = 6. On the technique in general: An ELISA detects its analyte on a solid surface through an enzyme-linked reagent.
In test [2] the target is human αvβ3 integrin on cells (human) (UniProt P06756). The test can be described thus: 125-I antibody saturation binding on M21 cells.
Test [3] shares this target. In words: 125-I antibody saturation binding on A375S2 cells.

human αvβ3 integrin on cells (human), sequence (P06756 31-1048, chain 1 of 2): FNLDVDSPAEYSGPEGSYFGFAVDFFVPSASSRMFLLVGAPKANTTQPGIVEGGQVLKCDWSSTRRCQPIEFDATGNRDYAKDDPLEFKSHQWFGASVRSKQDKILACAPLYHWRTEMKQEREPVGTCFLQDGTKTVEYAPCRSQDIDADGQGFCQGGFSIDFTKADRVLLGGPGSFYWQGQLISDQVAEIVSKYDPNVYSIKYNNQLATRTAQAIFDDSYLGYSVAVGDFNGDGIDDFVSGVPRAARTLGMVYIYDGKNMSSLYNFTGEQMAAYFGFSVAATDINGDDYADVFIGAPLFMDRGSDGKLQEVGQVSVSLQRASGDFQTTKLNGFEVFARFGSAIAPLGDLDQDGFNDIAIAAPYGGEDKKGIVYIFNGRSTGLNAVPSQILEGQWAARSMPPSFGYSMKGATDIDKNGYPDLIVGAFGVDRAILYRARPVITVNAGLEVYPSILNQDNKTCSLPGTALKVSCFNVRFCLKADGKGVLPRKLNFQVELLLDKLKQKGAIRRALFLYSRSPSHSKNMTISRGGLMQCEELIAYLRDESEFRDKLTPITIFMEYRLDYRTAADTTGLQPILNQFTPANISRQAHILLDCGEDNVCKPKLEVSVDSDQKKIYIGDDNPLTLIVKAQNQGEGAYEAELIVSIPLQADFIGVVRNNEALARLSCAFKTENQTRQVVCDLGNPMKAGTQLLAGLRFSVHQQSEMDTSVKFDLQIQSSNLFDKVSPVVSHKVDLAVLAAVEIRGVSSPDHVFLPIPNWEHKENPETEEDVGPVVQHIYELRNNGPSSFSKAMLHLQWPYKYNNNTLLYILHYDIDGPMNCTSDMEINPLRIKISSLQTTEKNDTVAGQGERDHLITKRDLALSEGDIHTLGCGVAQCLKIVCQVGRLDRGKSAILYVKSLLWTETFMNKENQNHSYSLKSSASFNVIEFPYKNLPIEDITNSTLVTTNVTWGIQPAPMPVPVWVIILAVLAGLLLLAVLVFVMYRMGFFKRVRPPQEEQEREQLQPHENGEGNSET
human αvβ3 integrin on cells (human), sequence (P05106 27-788, chain 2 of 2, further chain): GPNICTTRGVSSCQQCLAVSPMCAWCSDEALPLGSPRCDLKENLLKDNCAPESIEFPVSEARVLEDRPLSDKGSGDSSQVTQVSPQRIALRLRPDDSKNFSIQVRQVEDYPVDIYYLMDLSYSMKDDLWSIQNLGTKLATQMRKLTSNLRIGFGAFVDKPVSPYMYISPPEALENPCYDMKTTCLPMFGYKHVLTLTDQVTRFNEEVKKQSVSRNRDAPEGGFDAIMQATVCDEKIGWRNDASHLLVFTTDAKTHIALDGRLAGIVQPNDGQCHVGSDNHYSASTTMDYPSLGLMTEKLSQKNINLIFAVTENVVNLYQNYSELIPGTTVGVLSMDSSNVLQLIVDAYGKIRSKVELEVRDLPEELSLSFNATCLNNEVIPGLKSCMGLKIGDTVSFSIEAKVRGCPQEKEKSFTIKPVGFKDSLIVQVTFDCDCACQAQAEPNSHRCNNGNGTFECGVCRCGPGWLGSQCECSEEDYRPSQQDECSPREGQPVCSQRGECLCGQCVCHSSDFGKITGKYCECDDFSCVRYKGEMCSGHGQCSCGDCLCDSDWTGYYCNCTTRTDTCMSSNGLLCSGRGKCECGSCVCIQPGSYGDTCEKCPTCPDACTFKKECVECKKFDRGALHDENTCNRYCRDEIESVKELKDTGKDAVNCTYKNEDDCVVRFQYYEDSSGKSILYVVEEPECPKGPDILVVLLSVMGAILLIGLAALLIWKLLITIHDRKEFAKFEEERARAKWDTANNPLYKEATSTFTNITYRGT
human αVβ3 integrin, purified (human), sequence (P06756 31-1048, form in doubt, chain 1 of 2): as the sequence (P06756 31-1048, chain 1 of 2) above
human αVβ3 integrin, purified (human), sequence (P05106 27-788, form in doubt, chain 2 of 2, further chain): as the sequence (P05106 27-788, chain 2 of 2, further chain) above

B1: abciximab (Fab, INN chains, looked up, V domains shown)
VH: EVQLQQSGTVLARPGASVKMSCEASGYTFTNYWMHWVKQRPGQGLEWIGAIYPGNSDTSYIQKFKGKAKLTAVTSTTSVYMELSSLTNEDSAVYYCTLYDGYYVFAYWGQGTLVTVSA
VL: EIVLTQSPVTLSVTPGDSVSLSCRASRDISNNLHWFQQTSHESPRLLIKYASQSMSGIPSRFSGSGSGTDFTLSINSVETEDFGMYFCQQTNSWPYTFGGGTKLEIK
modifications: Fab 125I label
In general, Kd refers to the free concentration of one partner at which half of the binding sites on the other are occupied at equilibrium, for simple one-to-one binding. High values mean weaker binding, low ones tighter binding. With B1, the Kd in test [1] amounted to 0.25 nM; in test [2], 10 nM; in test [3], 22 nM. Further, the Receptors per cell (receptors per cell) in test [2] came out at 660000; in test [3] it was 370000.

For the origin of these results see patent publication US20090217392A1.
